Positions count from the first letter of the chain named. In names and notes the source's numbering stands.
T1: EsCas13d, nuclease-dead (Eubacterium siraeum, UniProt B0MS50, R295A;H300A;R849A;H854A)
T1 sequence: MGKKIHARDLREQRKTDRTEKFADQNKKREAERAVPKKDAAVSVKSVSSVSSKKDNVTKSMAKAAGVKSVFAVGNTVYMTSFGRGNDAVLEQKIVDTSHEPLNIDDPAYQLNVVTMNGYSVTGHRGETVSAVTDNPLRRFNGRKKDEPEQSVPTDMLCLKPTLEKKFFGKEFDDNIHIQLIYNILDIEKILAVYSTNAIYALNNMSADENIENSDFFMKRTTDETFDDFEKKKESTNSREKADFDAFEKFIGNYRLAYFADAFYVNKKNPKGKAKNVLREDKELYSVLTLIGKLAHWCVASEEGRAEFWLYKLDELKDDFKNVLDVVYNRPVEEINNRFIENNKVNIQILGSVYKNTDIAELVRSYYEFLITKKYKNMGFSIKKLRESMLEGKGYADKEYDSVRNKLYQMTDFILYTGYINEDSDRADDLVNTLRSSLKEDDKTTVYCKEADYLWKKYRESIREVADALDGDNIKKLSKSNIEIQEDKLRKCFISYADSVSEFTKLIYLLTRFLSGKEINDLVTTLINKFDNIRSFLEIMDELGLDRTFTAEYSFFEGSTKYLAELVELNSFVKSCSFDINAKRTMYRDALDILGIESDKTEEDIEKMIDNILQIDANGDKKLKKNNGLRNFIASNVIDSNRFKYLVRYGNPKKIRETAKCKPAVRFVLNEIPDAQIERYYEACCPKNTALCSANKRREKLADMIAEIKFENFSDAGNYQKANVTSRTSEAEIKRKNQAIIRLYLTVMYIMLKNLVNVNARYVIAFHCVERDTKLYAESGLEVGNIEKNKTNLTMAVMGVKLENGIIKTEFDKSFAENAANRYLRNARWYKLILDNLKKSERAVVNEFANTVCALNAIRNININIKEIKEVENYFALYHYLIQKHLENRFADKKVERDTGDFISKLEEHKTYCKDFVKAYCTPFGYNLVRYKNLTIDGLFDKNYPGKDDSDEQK

B1: target 3 G4C,A5U (mixed)
RNA 1: CACCCGUGCAAAAUUGCAGGGGUCUAAAACGACCUGAAUAUUUCAGAUCAAA
RNA 2: GGGAAUGGAUCCACAUCUACGAAUUCGUUUUUGAUCUGAAAUAUUCUCGUCUGCAGAUCGGAAGAGCACACGU
B2: target 3 insU 3' of 5,insC 3' of 3 (mixed)
RNA 1: B1 RNA 1
RNA 2: GGGAAUGGAUCCACAUCUACGAAUUCGUUUUUGAUCUGAAAUAUUCAUGGCUCUGCAGAUCGGAAGAGCACACGU
B3: target 3 G3U,U7A (mixed)
RNA 1: B1 RNA 1
RNA 2: B1 RNA 2 with U45A, U47A, C48G, G49U
B4: target 3 insA 3' of 22,insG 3' of 22 (mixed)
RNA 1: B1 RNA 1
RNA 2: GGGAAUGGAUCCACAUCUACGAAUUCGUUUAGUUGAUCUGAAAUAUUCAGGUCUGCAGAUCGGAAGAGCACACGU
B5: target 3 insA 3' of 4,insA 3' of 4 (mixed)
RNA 1: B1 RNA 1
RNA 2: B2 RNA 2 with U48G, G49A, G50A, C51G
B6: target 3 U2A,C6A (mixed)
RNA 1: B1 RNA 1
RNA 2: B1 RNA 2 with C46A, U47A, C48G, U50A
B7: target 3 U2G,U8G (mixed)
RNA 1: B1 RNA 1
RNA 2: B1 RNA 2 with U44G, U47A, C48G, U50G
B8: target 3 insC 3' of 22,insU 3' of 22 (mixed)
RNA 1: B1 RNA 1
RNA 2: B4 RNA 2 with A31C, G32U
B9: target 3 A9G,A18G (mixed)
RNA 1: B1 RNA 1
RNA 2: B1 RNA 2 with A34G, A43G, U47A, C48G
B10: target 3 insC 3' of 22,insG 3' of 6 (mixed)
RNA 1: B1 RNA 1
RNA 2: GGGAAUGGAUCCACAUCUACGAAUUCGUUUCUUGAUCUGAAAUAUUCGAGGUCUGCAGAUCGGAAGAGCACACGU
B11: target 3 U2G,C6U (mixed)
RNA 1: B1 RNA 1
RNA 2: B1 RNA 2 with C46U, U47A, C48G, U50G
B12: target 3 insC 3' of 21,insC 3' of 3 (mixed)
RNA 1: B1 RNA 1
RNA 2: B10 RNA 2 with C31U, U32C, G48A, A49G, G51C
B13: target 3 U2A,C6U (mixed)
RNA 1: B1 RNA 1
RNA 2: B1 RNA 2 with C46U, U47A, C48G, U50A
B14: target 3 insC 3' of 9,insC 3' of 7 (mixed)
RNA 1: B1 RNA 1
RNA 2: B2 RNA 2 with U44C, C46U, A47C, U48C, G49A, C51G
B15: target 1 insG 3' of 16,insG 3' of 4 (mixed)
RNA 1: CACCCGUGCAAAAAUGCAGGGGUCUAAAACUGAGCGGAUAACCUCUCUAUGG
RNA 2: GGGAAUGGAUCCACAUCUACGAAUUCGUACCAUAGAGGAGGUUAUCCGCGUCACCGAGAUCGGAAGAGCACACGU

biological target: T1, EsCas13d, nuclease-dead; assay: crRNA (strand 1, pre-loaded); Mg2+; 40 mM Tris-HCl pH 7.5, 150 mM NaCl, 6 mM MgCl2, 1 mM DTT, 0.1% Tween-20, 0.2 mg/ml BSA; 25 C; 10 min per concentration, then washed; conditions: tags: His6-TwinStrep-SUMO cleaved; N-terminal SNAP kept (SNAP-Surface 488); label: 3' end held by stalled T7 RNA polymerase

Row | Binder | Kd
1 | B1 | 42.5 ± 10 nM
2 | B2 | 10.9 ± 1.1 nM
3 | B3 | 37 ± 4.5 nM
4 | B4 | 48 ± 7 nM
5 | B5 | 21.1 ± 3.3 nM
6 | B6 | 15.6 ± 1.9 nM
7 | B7 | 47 ± 14.5 nM
8 | B8 | 19.1 ± 3.15 nM
9 | B9 | 26.4 ± 2.95 nM
10 | B10 | 22.1 ± 2.45 nM
11 | B11 | 2.4 ± 0.255 nM
12 | B12 | 80 ± 30.5 nM
13 | B13 | 4.55 ± 0.43 nM
14 | B14 | 113 ± 50.5 nM
15 | B15 | 13.7 ± 0.7 nM

— PMC10786891, “Massively parallel profiling of RNA-targeting CRISPR-Cas13d”
